According to US10337022B2, “Methods of increasing root biomass in plants” (Agresearch Limited, priority 2014, dated 2019):

T1: BZR1 (Arabidopsis thaliana, UniProt Q8S307)
T1 construct: expressed in transfected cells; host or cells: Nicotiana benthamiana leaves (Agrobacterium infiltration)
T1 sequence (Q8S307 1-336): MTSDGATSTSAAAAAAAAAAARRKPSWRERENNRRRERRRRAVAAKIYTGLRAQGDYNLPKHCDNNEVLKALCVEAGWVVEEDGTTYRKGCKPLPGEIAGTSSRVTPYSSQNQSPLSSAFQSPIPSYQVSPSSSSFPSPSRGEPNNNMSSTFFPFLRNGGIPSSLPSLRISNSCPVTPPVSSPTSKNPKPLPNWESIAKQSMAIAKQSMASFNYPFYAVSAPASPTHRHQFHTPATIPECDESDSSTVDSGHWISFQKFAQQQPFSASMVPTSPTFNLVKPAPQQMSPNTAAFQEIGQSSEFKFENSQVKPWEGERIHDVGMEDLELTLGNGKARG

B1: P. sitchensis PPD: Picea sitchensis PEAPOD protein, SEQ ID NO: 5 (protein, listed as Picea sitchensis)
chain: MRGGERAPGSRPSLDKPLEELTEEDIFQLTREDCRRYLKEKGMRRPSWNKSQAIQQVLSLKSLFESKPNQQSKKPSKHKPATLQFETARDSTFAQSSVSQEQSLGFSWSKEVLDKGTAERQRLCSDSQEAHEIPRLGSKPPQSNTEGKRCAHDGHGRKSAQPLVRLPANFKNDCSNRQSSHTSESQPDTLLRSDSFQQPTAQLTIFYAGMVNVYDDVPLDKA
B2: P. abies PPD: Picea abies PEAPOD protein, SEQ ID NO: 4 (protein)
chain: MRGGGGADRLPARANLEKPLEDLSHEDIMQLTREDCRRYLIEKGMRRPSWNKSQAIQQVLSLKKLFESGPNDEKRSAATNRPNPDENLKEAASVSLLYGSQPESPSVVFASKDSDTFNLEWLAKTELPVLASQPRHIAQQNVFLSSLSAQQSGAQLTIFYSGNVNVYDDVPAEKAQEIMLLAGSGNYPPSSTCQSTRNTQQNAVRAAYPSNPTNTPFIHGVGPPLATVASSSVMSSPIHKESPITRKASLQRFLEKRKDRSRGKLGAPTISKKPLLMGMFMHPSIVHRQYWTDTAKRKSGKPDIPASISPTRPPHTPRRTSSDEQLSARHARGDISAQGGSLHNSN
modifications: Picea abies
B3: T. repens PPD: Trifolium repens PEAPOD protein, SEQ ID NO: 11 (protein, listed as Trifolium repens)
chain: MNGGSTVSFRSILDKPLNQLTEDDISQLTREDCRRFLKDKGMRRPSWNKSQAIQQVISLKALLEPTDDDLPAPVGVSSAIHHHHHHHPQPPQRNLNEAPVKGSDLDDTGFHTAEDLNKSTSTAVEIPTETNDANVVKSSGGCVASGSFGQMTIFYCGKVNVYDGVSPDKARSIMQLAACPSSFPQDNLLNKNAAVWASPCNIPIDKDVLFPNDTAILQVAQTDKMVEYPLQYREKGSIARDADVEGQASRNASLQRYREKRKDRGRSKGNKLTGITSSNFEMYLNLPVKLHASNGNSSRSSTDSPPQPRLPLVSGGSAENQPKVTLPIDLNDKDVQEC
B4: A. trichopoda PPD: Amborella trichopoda PEAPOD protein, SEQ ID NO: 12 (protein, listed as Amborella trichopoda)
chain: MTAGDGSIRSILDKPLEELTEEDISQLTREDCRRYLKEKGMRRPSWNKYQAIQQVLSLKGLLEGKPCDDNSDVFSHRSPITVIPNVGSMREKEKAVNIADPEISGSHQPNFRREIHETTRERALPASDWPPSQEPVSQMTIFYAGAVNVYNDIPEDKVQAIIYLAGKSDSLQQTNVIRTGPDQCIASAASPSLNDLHSRRIHPTSNITTSQSLRVATSLPVGPHSEVPKTRKTSVQRFLEKRKDRGRLKGTLASGGSSKRGSSCLELYATSRLKSEGVATTTTQSNMNNVVVSPSNPRMPLNPGSCSWVEN

Columns and labels:
[1] = tested on: Wild-type (Col-0), Δppd mutant and transgenic PPD-OX seedlings; experiment: Hypocotyl length response to exogenous GA or PAC; format: in vivo, Arabidopsis
Excerpt: Giberellic acid (GA) treatment is known to reduce levels of the DELLA proteins (including RGA1) which are GA repressors; to determine the relationship between PPD, DELLA and the GA signalling pathway the applicants performed a yeast two-hybrid (Y2H) analysis between PPD and DELLA (RGA1) and applied gibberellic acid (GA) hormone and GA biosynthesis inhibitor (paclobutrazol, PAC) to wild type, Δppd mutant, and the Δppd mutant PPD over expressor (PPD-OX).
For exogenous applications of GA or PAC seeds were surface sterilised with 70% ethanol, 0.01% Triton X-100 for 10 min, followed by 100% ethanol for 5 min, air dried on sterile filter paper, and transferred to media plates containing half-strength MS salts, 1% sucrose and 0.8% agar. Plates were incubated for 5 days at 4° C. in the dark then transferred to 24° C. with a 14 h light/10 h dark daily cycle. Light was provided by fluorescent tubes (Philips TLD 58W/865) at an intensity of 100 μM m^−2 s^−1. Wild-type (Col-0) Δppd mutant and transgenic PPD-OX seedlings were grown for five days on medium with different concentrations of GA (FIG. 10A) or PAC (FIG. 10B). GA (ACROS organics), and PAC (Sigma-Aldrich) were dissolved in ethanol and acetone respectively, filter sterilised and incorporated into media plates. Ethanol or acetone (0.5%) was used for mock treatments. Seedlings were grown at 24° C. under a 14 h light/10 h dark daily cycle for 5 days before hypocotyl lengths were analysed (n=35). Each treatment was repeated twice; error bars=standard error of the mean.

[2] = biological target: T1, BZR1; experiment: BiFC interaction with BZR1 in Nicotiana benthamiana leaves; format: cell-based; conditions: fully expanded leaves, co-expressed with cYFP-BZR1
Excerpt: The binary BiFC-Gateway YFP vectors pDEST-VYNE(R)^GW (Venus aa 1-173) and pDEST-VYCE(R)^GW (Venus aa 156-239) with N-terminal fusions, were used to construct the following vectors; pDESTnYFP-BZR1, pDESTnYFP-NINJA, pDESTnYFP-PPD1, pDESTcYFP-BZR1, pDESTcYFP-PPD1, pDESTcYFP-PPD1Δppd, pDESTcYFP-PPD1Δtify and pDESTcYFP-PPD1Δjas*. […] Plasmids for co-immunoprecipitation: A synthesised DNA construct encoding PPD1 with a 3×c-myc C-terminal fusion was sub-cloned into pRSh1 to produce pRSh1-PPD1-3×c-myc, while the NINJA cDNA sequence was sub-cloned into pB7FWG2,0 (Karimi et al 2002, Trends Plant Sci. 7, 193-195) to construct pB7FWG2-NINJA-GFP.
For infiltration Agrobacterium tumefaciens GV3101 strains containing the binary vectors were re-suspended from plates and prepared for transformation as described for the LUC assay. All YFP and expression strains were mixed in ratios of 1:1 (vol/vol) with the addition of strain P19 at 1/10th volume. Five leaf discs were sampled from each infiltrated leaf after 40 h. Two hours prior to sampling for microscopic fluorescence observations leaves were infiltrated with a 1 μg/ml DAPI solution to stain nuclei. YFP fluorescence and DAPI staining was detected using an Olympus Fluoview FV10i confocal laser scanning microscope. Each experiment was repeated twice.

[3] = tested on: ryegrass plants; experiment: Root biomass analysis of ryegrass transformants; format: in vivo; conditions: approximately 6 weeks in glasshouse
Method: (§1) An equal number (typically 4-10) of tillers were taken from WT and ryegrass plants transformed with Arabidopsis PPD under a constitutive promoter. Tillers were planted into plastic grow bags containing potting mix and pruned to be of equal height. […] The increase in root biomass was quantified by washing the roots under running water then removing the attached above ground portion (leaves and stems) and drying the roots at 65° C. for 48 hr then weighing the dry weights (Table 2).
as §1, with “one of three root promoters.” for “a constitutive promoter.”, “3 and Table 4)” for “2).”

[4] = tested on: PEAPOD deletion mutant Δppd Arabidopsis thaliana ecotype Landsberg erecta; experiment: Complementation of the Arabidopsis Δppd mutant leaf phenotype; format: in vivo; conditions: optimized PEAPOD coding sequence under CaMV35s promoter, seedlings (FIG. 13)
Excerpt: The functionality of any PEAPOD sequence can be confirmed by complementation of the Arabidopsis Δppd mutant leaf phenotype. Complementation of the Arabidopsis Δppd mutant leaf phenotype was first used to identify the Arabidopsis PPD gene (White 2006). This was seen by a restoration of the wild type flattened leaf phenotype and normal rosette shape as opposed to the domed leaf and the twisting of the rosette to a “propeller” phenotype.
Constructs above can be transformed into Arabidopsis by the floral dip infiltration method (Clough and Bent, 1998 Plant J 16, 735-43). The Δppd line is transformed to express the PPD polypeptides by standard techniques. Transgenic plants are confirmed by standard PCR analysis techniques with a combination of transgene-specific and T-DNA primers.
Complementation of the Δppd line to produce a wild-type leaf and rosette phenotype in T1 seedlings (the off-spring of the infiltrated plant) confirms PEAPOD functionality of the introduced gene, which can be shown in photographs.

[5] = tested on: Δppd Arabidopsis plants; experiment: Root biomass analysis of Arabidopsis transformants; format: in vivo; conditions: constitutive promoter, approximately 6 weeks in growth cabinet
Method: Seeds from WT and Δppd Arabidopsis plants transformed with T. repens PPD under a constitutive promoter were scarified and sown into potting mix. […] The increase in root biomass was quantified by washing the roots under running water then the attached above ground portion (leaves and stems) was removed and the roots dried at 65° C. for 48 hr then weighed.

Molecule	root growth beyond the grow bag compared to WT plants ([3]; constitutive promoter)	root growth beyond the grow bag compared to WT plants ([3]; one of three root promoters)	PEAPOD functionality by complementation of Δppd mutant [4]	root growth beyond the pot compared to WT plants [5]	other results
CC(C)(C)[C@@H](O)[C@@H](Cc1ccc(Cl)cc1)n1cncn1 (racemic) [PAC, paclobutrazol]	–	–	–	–	hypocotyl length ([1]; PPD-OX seedlings, PAC beyond 0.1 μM): decrease in hypocotyl length; hypocotyl length ([1]; PPD-OX seedlings, PAC up to 0.1 μM): relatively insensitive; hypocotyl elongation ([1]; wild type seedlings, 0 to 10 μM PAC): dose dependent decrease of hypocotyl elongation; hypocotyl elongation ([1]; Δppd seedlings, 0 to 10 μM PAC, compared with wild type): larger reduction in hypocotyl elongation
C=C1C[C@]23C[C@@]1(O)CC[C@H]2[C@@]12C=C[C@H](O)[C@@](C)(C(=O)O1)[C@H]2[C@@H]3C(=O)O [GA, gibberellic acid]	–	–	–	–	hypocotyl elongation ([1]; PPD-OX seedlings, 1 μM GA, 5 days): increased hypocotyl elongation; hypocotyl elongation ([1]; PPD-OX seedlings, up to 10 μM GA): hypersensitive elongation; hypocotyl elongation ([1]; WT seedlings, 5-50 μM GA, 5 days): elongation of the WT hypocotyl occurred in a dose dependent manner; hypocotyl elongation ([1]; wild type (WT) seedlings, 1 μM GA, 5 days): did not promote elongation; hypocotyl elongation ([1]; Δppd seedlings, 1 μM GA, 5 days): increased hypocotyl elongation; hypocotyl elongation ([1]; Δppd seedlings, up to 5 μM GA): hypersensitive elongation
nYFP-PPD1: PPD1 with N-terminal fusion of Venus aa 1-173 for BiFC	–	–	–	–	BiFC interaction with BZR1 [2]: no interaction was observed
B1	increase in root biomass/growth/length/branching	increase in root biomass/growth/length/branching	functionally equivalent	–	–
B2	–	–	–	increase in root biomass/growth/length/branching	–
B3	increase in root biomass/growth/length/branching	increase in root biomass/growth/length/branching	functionally equivalent	increase in root biomass/growth/length/branching	–
B4	increase in root biomass/growth/length/branching	increase in root biomass/growth/length/branching	functionally equivalent	increase in root biomass/growth/length/branching	–
